Laboratory results as given in patent publication US20250101111A1 (ARGENX, published 2025).
Numbering of substitutions follows the chain as printed. In names and notes the source's numbering stands.

Experiments:
[1] = molecular target: T1, human FcRn, endogenous, in THP-1 cells and blood monocytes (human, UniProt P55899 24-365; P61769 21-119); test: intracellular FcRn occupancy assay, flow cytometry: THP-1 FcγRIIa K.O. cells preloaded with IVIg, free FcRn stained with DL650-labeled anti-FcRn Fab
T1 construct: whole, on cells; Mainly intracellular; measured in intact or permeabilised cells
Procedure: In short, 1×10⁵ cells were loaded with 5-fold dilution series of IgG variants and fragments thereof for 2 h, ranging from 4 to 500 nM under culture conditions, as specified above. […] 95 μL of this cell solution was then combined with 5 μL of 20× concentrated dilution series of IgG variants and incubated for another 2 h under culture conditions. Thereafter, cells were transferred to 96-well V-bottom plate (Corning) and incubated on ice for 2 min. Cells were subsequently spun down for 3 min at 450×g at 4° C. and the supernatant was discarded. Following the same procedure, cells were washed five times with 150 μL ice-cold medium, followed by one wash with 150 μL 1×PBS supplemented with 1% (v/v) FCS at pH 7.4 and one wash with 150 μL of 1×PBS supplemented with 1% (v/v) FCS at pH 6.0. Cells were then fixed and permeabilized using both solutions of a Fixation/Permeabilization Kit (BD Biosciences) adapted to pH 6.0 after addition of MES (Thermo Fisher Scientific) to a final concentration of 0.5M, otherwise following manufacturer's instructions. […] Cells were washed twice with 150 μL 1×PBS supplemented with 1% (v/v) FCS at pH 6.0, spun down at 450×g at 4° C. for 3 min and the supernatants were discarded. Finally, cells were resuspended in 50 μL of the same buffer, transferred to Micronics tubes (Micronic) on ice and measured in flow cytometry.

human FcγRIa = molecular target: T2, human FcγRIa (human, UniProt P12314 16-288); test: SPR (IBIS MX96), FcγR captured on sensor, Fc fragment titrated, pH 7.4, equilibrium 1:1 fit
T2 construct: Bought, C-terminally His-tagged; captured on the sensor by biotinylated anti-His mIgG1; also called hFcγRIa; not shown: C-terminal His tag
Procedure: (§1) The sensor surface was regenerated between the cycles by subsequent injections of 20 mM Tris-HCl, 150 mM NaCl pH 8.8 and 20 mM H₃PO₄ pH 2.4. […] Regeneration of the sensor surface between the cycles was performed by injection of 10 mM Gly-HCl pH 2.4. Affinity calculations were carried out by performing an equilibrium analysis interpolating to an Rmax of 200 to 600, depending on the assay, and fitting a 1:1 Langmuir binding model, assuming equilibrium to be reached after 360s of IgG-Fc containing analyte injections. Analysis and calculations were performed using Scrubber Software Version 2 (BioLogic Software), Excel (Microsoft) and Graphpad Prism (Prism).

human FcγRIIIa-158F = molecular target: T3, human FcγRIIIa-158F (human, UniProt P08637 17-208, C-terminal biotin); test: SPR, Fc fragments on captured FcγRs, pH 7.4
T3 construct: Bought, C-terminally biotinylated; captured on a streptavidin sensor; also called hFcγRIIIa-158F
Procedure: as §1

human FcγRIIIb-NA2 = molecular target: T4, human FcγRIIIb-NA2 (human, UniProt O75015 17-200, limits assumed, C-terminal biotin); test: SPR, Fc fragments on captured FcγRs, pH 7.4
T4 construct: In-house, C-terminally biotinylated; captured on a streptavidin sensor; also called hFcγRIIIb-NA2
Procedure: as §1

human FcγRIIa-131H = molecular target: T5, human FcγRIIa-131H (human, UniProt P12318 34-218, C-terminal biotin); test: SPR, Fc fragments on captured FcγRs, pH 7.4
T5 construct: Bought, C-terminally biotinylated; captured on a streptavidin sensor
T5 sequence (looked up): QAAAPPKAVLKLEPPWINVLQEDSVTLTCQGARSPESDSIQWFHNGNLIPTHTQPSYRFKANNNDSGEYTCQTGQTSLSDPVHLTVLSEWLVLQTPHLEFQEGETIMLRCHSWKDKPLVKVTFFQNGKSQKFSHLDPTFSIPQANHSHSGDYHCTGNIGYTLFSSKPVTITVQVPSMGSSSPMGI
Procedure: as §1

human FcγRIIa-131R = molecular target: T6, human FcγRIIa-131R (human, UniProt P12318 34-218, C-terminal biotin); test: SPR, Fc fragments on captured FcγRs, pH 7.4
T6 construct: Bought, C-terminally biotinylated; captured on a streptavidin sensor
T6 sequence (looked up): T5 sequence (looked up) with H134R
Procedure: as §1

human FcγRIIIa-158V = molecular target: T7, human FcγRIIIa-158V (human, UniProt P08637 17-208, C-terminal biotin); test: SPR, Fc fragments on captured FcγRs, pH 7.4
T7 construct: Bought, C-terminally biotinylated; captured on a streptavidin sensor; also called hFcγRIIIa-158V
Procedure: as §1

human FcγRIIIb-NA1 = molecular target: T8, human FcγRIIIb-NA1 (human, UniProt O75015 17-200, limits assumed, C-terminal biotin); test: SPR, Fc fragments on captured FcγRs, pH 7.4
T8 construct: In-house, C-terminally biotinylated; captured on a streptavidin sensor; also called hFcγRIIIb-NA1
Procedure: as §1

T1 sequence (P55899 24-365 limits assumed, chain 1 of 2): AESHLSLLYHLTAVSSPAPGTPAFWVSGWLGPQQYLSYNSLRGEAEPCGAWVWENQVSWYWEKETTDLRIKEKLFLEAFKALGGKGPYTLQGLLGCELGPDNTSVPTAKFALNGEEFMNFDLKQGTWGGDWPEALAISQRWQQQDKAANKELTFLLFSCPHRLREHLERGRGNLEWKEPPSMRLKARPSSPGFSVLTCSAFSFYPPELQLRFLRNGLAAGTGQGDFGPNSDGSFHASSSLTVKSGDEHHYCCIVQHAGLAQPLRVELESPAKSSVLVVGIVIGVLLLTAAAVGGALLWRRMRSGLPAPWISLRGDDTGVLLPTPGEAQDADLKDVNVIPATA
T1 sequence (P61769 21-119 limits assumed, chain 2 of 2): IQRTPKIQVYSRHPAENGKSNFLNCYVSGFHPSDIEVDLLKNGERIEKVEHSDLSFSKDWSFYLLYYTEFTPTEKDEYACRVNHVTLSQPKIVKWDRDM
T2 sequence (P12314 16-288 limits assumed): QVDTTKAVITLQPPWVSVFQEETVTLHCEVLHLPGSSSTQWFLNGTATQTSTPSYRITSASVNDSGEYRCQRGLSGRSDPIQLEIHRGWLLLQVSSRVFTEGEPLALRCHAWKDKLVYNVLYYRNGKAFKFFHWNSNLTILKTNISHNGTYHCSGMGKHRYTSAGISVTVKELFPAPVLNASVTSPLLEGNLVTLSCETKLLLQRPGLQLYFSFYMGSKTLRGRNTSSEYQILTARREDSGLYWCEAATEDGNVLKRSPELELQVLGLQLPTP

B1: Fc-IHH (other, human, UniProt P01857-1 104-330, looked up)
chain: DKTHTCPPCPAPELLGGPSVFLFPPKPKDTLMASRTPEVTCVVVDVSHEDPEVKFNWYVDGVEVHNAKTKPREEQYNSTYRVVSVLTVLAQDWLNGKEYKCKVSNKALPAPIEKTISKAKGQPREPQVYTLPPSRDELTKNQVSLTCLVKGFYPSDIAVEWESNGQPENNYKTTPPVLDSDGSFFLYSKLTVDKSRWQQGNVFSCSVMHEALHNAYTQKSLSLSPGK
notes: domain: Fc fragment; IHH = I253A H310A H435A (EU numbering); also called IgG1-Fc-IHH
[1]
  binding result: no binding (tested: 500 nM)
Human FcγRIa
  Kd: 6.1 nM
Human FcγRIIIa-158F
  fold reduction in binding compared to Fc-WT: ≥ 3 fold
Human FcγRIIIb-NA2
  fold reduction in binding compared to Fc-WT: ≥ 3 fold
Human FcγRIIa-131H
  fold reduction in binding compared to Fc-WT: ≥ 3 fold
Human FcγRIIa-131R
  fold reduction in binding compared to Fc-WT: ≥ 3 fold
Human FcγRIIIa-158V
  fold reduction in binding compared to Fc-WT: ≥ 3 fold
Human FcγRIIIb-NA1
  fold reduction in binding compared to Fc-WT: ≥ 3 fold
